# Measurements reported in patent US11653679B2, “High-purity steviol glycosides” (PureCircle Sdn Bhd, priority 2014, dated 2023).
# Assays:
# Format in all cases: biochemical
# [1] = Transformation of Stevioside to Rebaudioside A with UGT76G1 lysate (Examples 4, 13), HPLC; details: in-vivo produced UGT76G1 thawed lysate, 0.5 mM Stevioside, 30° C., HPLC (CAD)
# Procedure: The total volume of the reaction was 5.0 mL with the following composition: 50 mM sodium phosphate buffer pH 7.2, 3 mM MgCl2, 2.5 mM UDP-glucose, 0.5 mM Stevioside and 500 μl, of UGT76G1 thawed lysate. The reactions were run at 30° C. on an orbitary shaker at 135 rpm. For each sample, 460 μL of the reaction mixture was quenched with 40 μL of 2N H2SO4 and 420 μL of methanol/water (6/4). The samples were immediately centrifuged and kept at 10° C. before analysis by HPLC (CAD).
# (§1) Activity tests were performed on a 5 mL scale with 500 μL of thawed lysate for the transformation of Stevioside to Rebaudioside A and Rebaudioside D to Rebaudioside M using 0.5 mM of substrate, 2.5 mM of UDP-Glucose and 3 mM MgCl2 in 50 mM Sodium Phosphate buffer at pH 7.2. Samples were taken and analyzed by HPLC.
# [2] = Transformation of Rebaudioside D to Rebaudioside M with UGT76G1 (Examples 6, 13), HPLC; details: after 120 h, in-vitro produced UGT76G1, 0.5 mM Rebaudioside D, 30° C.
# Procedure: The total volume of the reaction was 2 mL with the following composition: 50 mM sodium phosphate buffer pH 7.2, 3 mM MgCl2, 3.8 mM UDP-glucose, 0.5 mM Rebaudioside D and 180 μL of in-vitro produced UGT76G1. The reactions were run at 30° C. on an orbitary shaker at 135 rpm. For each sample, 400 μL of reaction mixture was quenched with 40 μL of 2N H2SO4 and 360 μL of 60% MeOH. After centrifugation, the supernatant was analyzed by HPLC (CAD).
# as §1
# [3] = Conversion of Rebaudioside E to Rebaudioside D with UGT76G1 lysate (Example 25); details: UGT76G1 thawed lysate, 0.5 mM Rebaudioside E, pH 7.5, 30° C.
# Procedure: The total volume of the reaction was 5.0 mL with the following composition: 100 mM potassium phosphate buffer pH 7.5, 3 mM MgCl2, 2.5 mM UDP-glucose, 0.5 mM Rebaudioside E and 500 μL of UGT76G1 thawed lysate (UGT76G1 gene was cloned in pET30a+ vector and expressed in E. coli BL21 (DE3)). The reactions were run at 30° C. on an orbitary shaker at 135 rpm. For sampling 300 μL of the reaction mixture was quenched with 30 μL of 2N H2SO4 and 270 μL of methanol/water (6/4). The samples were immediately centrifuged and kept at 10° C. before analysis by HPLC (CAD detection).
molecule,measurement,setting,value
"UGT76G1: UDP-glucosyltransferase UGT76G1 [Stevia rebaudiana], Genbank AAR06912.1, SEQ ID NO:11 (protein, listed as Stevia rebaudiana) MENKTETTVRRRRRIILFPVPFQGHINPILQLANVLYSKGFSITIFHTNFNKPKTSNYPHFTFRFILDNDPQDERISNLPTHGPLAGMRIPIINEHGADELRRELELLMLASEEDEEVSCLITDALWYFAQSVADSLNLRRLVLMTSSLFNFHAHVSLPQFDELGYLDPDDKTRLEEQASGFPMLKVKDIKSAYSNWQILKEILGKMIKQTKASSGVIWNSFKELEESELETVIREIPAPSFLIPLPKHLTASSSSLLDHDRTVFQWLDQQPPSSVLYVSFGSTSEVDEKDFLEIARGLVDSKQSFLWVVRPGFVKGSTWVEPLPDGFLGERGRIVKWVPQQEVLAHGAIGAFWTHSGWNSTLESVCEGVPMIFSDFGLDQPLNARYMSDVLKVGVYLENGWERGEIANAIRRVMVDEEGEYIRQNARVLKQKADVSLMKGGSSYESLESLVSYISSL",conversion of stevioside to rebaudioside A,[1],almost complete conversion
same,conversion of rebaudioside D to rebaudioside M,[2],80%
same,conversion of Rebaudioside E to Rebaudioside D,[3],complete conversion
